Results on 1 molecule are retold here after patent publication US7799901B2, “Modulators of the function of FAS receptors and other proteins” (Yeda Research and Development Co. Ltd., priority 1995, dated 2010).

One assay has as its target T1, FAS-IC (Homo sapiens, UniProt P25445).
T1 construct: the FAS-IC extends-from amino acid residues 175-319 of the intact FAS-R; expressed in transfected cells; host or cells: SFY526 yeast
T1 sequence (P25445 191-335): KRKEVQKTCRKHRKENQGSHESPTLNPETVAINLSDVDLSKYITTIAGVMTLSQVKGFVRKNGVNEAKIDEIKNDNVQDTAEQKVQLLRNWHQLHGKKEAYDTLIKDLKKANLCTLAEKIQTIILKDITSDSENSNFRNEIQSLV
As to the kind of experiment: Two-hybrid test of MORT-1 binding (FIG. 1), human Fas-IC. To be noted: transfected SFY526 yeasts. From the text: (§1) To isolate proteins interacting with the intracellular domain of the FAS-R, the yeast two-hybrid system was used (Fields and Song, 1989). […] In this system, the genes for the candidate interacting proteins are cloned into separate expression vectors. In one expression vector, the sequence of the one candidate protein is cloned in phase with the sequence of the GAL4 DNA-binding domain to generate a hybrid protein with the GAL4 DNA-binding-domain, and in the other vector, the sequence of the second candidate protein is cloned in phase with the sequence of the GAL4 activation domain to generate a hybrid protein with the GAL4-activation domain. The two hybrid vectors are then co-transformed into a yeast host strain having a lacZ or HIS3 reporter gene under the control of upstream GAL4 binding sites. Only those transformed host cells (cotransformants) in which the two hybrid proteins are expressed and are capable of interacting with each other, will be capable of expressing the reporter gene. In the case of the lacZ reporter gene, host cells expressing this gene will become blue in color when X-gal is added to the cultures. […]
(§2) In FIG. 1, there is depicted the interaction of the proteins encoded by the Gal4 DNA binding domain and activation-domain constructs (pGBT9 and pGAD-GH) within transfected SFY526 yeasts as assessed by β-galactosidase expression filter assay. […]

In assay [1] the target is T2, FAS-IC with replacement mutations at position 225 (Ile) (Mus musculus, UniProt P25446, I246A).
T2 construct: four constructs of the mouse Fas-IC including two full-length constructs; expressed in transfected cells; host or cells: SFY526 yeast
T2 sequence (P25446 187-327 I246A): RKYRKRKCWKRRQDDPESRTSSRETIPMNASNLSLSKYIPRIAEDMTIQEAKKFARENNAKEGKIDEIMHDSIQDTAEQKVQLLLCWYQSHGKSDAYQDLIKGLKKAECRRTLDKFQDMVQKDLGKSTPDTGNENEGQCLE
Briefly: Two-hybrid test of MORT-1 binding (FIG. 1), FAS-IC mutated at position 225. The conditions noted are these: lpr^eg mutation site.
Description: as §1, §2

The next assay addresses T3, p75 TNF receptor (Homo sapiens, UniProt P20333).
T3 construct: human p75 TNF receptor (p75-IC, residues 287-461); expressed in transfected cells; host or cells: SFY526 yeast
T3 sequence (P20333 287-461): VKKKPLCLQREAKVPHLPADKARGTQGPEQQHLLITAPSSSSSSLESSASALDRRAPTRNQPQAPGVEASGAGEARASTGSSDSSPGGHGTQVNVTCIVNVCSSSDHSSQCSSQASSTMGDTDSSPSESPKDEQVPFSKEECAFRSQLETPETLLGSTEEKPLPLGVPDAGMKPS
As to the kind of experiment: Two-hybrid test of MORT-1 binding (FIG. 1), p75 TNF receptor. The conditions noted are these: p75-IC residues 287-461, FIG. 1.
Description: as §1, §2

B1: MORT-1: Mediator of Receptor-induced Toxicity; protein binding the intracellular domain of FAS-R, SEQ ID NO:2 (protein)
chain: VNQAPECRFGGGILGPLGKRRDLARASEPRTEGARRAGPQPRPLADPAMDPFLVLLHSVSSSLSSSELTELKFLCLGRVVKRKLERVQSGLDLFSMLLEQNDLEPGHTELLRELLASLRRHDLLRRVDDFEAGAAAGAAPGEEDLCAAFNVICDNVGKDWRRLARQLKVSDTKIDSIEDRYPRNLTERVRESLRIWKNTEKENATVAHLVGALRSCQMNLVADLVQEVQQARDLQNRSGAMSPMSWNSDASTSEAS
B1: in the assay with FAS-IC, the “binding to human Fas-IC in two-hybrid test” value was “binds”. The “binding to FAS-IC with replacement mutation at position 225” value in assay [1] was “prevents binding”. Also, the “binding to p75 TNF receptor in two-hybrid test” value with p75 TNF receptor was “not”.
